What all share (assay): fluorescence anisotropy
Common to all, as to conditions: 2 mM Mg2+, 20 mM HEPES pH 7.9, 100 mM KCl, 2 mM MgCl2, 0.5 mM EDTA, 1 mM DTT, 0.2 mg/mL BSA, 5 nM 6-FAM-DNA, 25 C
Background: In fluorescence polarisation assays a small probe gives low polarisation when free and higher when bound to something large.

For data set [1], the system named is FL-p53 (thermostable, cysteine-modified mutant) (human).
Another data set concerns TetCT mutant (human).
The next data set relates to CoreTet mutant (human).

pKd: −log10 of the molar value.

The term pKd denotes −log10 of the Kd, conventionally taken in molar units. Read a low pKd as a large Kd. On to nspDNA (random sequence), for which the negative-log Kd (pKd) in data set [1] (75 uM DP6) is 7.49; in data set [1] (150 uM DP6), 7.24; in data set [1] (300 uM DP5), 7.26; in data set [1] (300 uM DP6), 7.05; in data set [1] (450 uM DP6) it was 6.89; in data set [1] (600 uM DP5), 7.21. For the same substance, the pKd in data set [1] (600 uM DP6) was 6.80; in data set [1] (no DP5 (DP5 series)), 7.31; in data set [1] (no DP6), 7.62; in the data set on TetCT mutant (human) (75 uM DP6) it was 6.47; in the data set with TetCT mutant (human) (no DP6) it was 6.96.

With spDNA (p21), the pKd in data set [1] (75 uM DP6) is 8.04; in data set [1] (150 uM DP6), 7.92; in data set [1] (300 uM DP5), 8.07; in data set [1] (300 uM DP6) it was 7.70; in data set [1] (450 uM DP6) it was 7.66; in data set [1] (600 uM DP5) it was 8.28. Moreover, the pKd in data set [1] (600 uM DP6) is 7.68; in data set [1] (no DP5 (DP5 series)), 8.18; in data set [1] (no DP6) it was 8.14; in the data set on CoreTet mutant (human) (600 uM DP6), 7.89; in the data set on CoreTet mutant (human) (no DP6) it was 7.72.

These data come from article PMC6599006, “Rational design using sequence information only produces a peptide that binds to the intrinsically disordered region of p53” (Scientific Reports, 2019).
